Measured values: PMC5706988

Target: zonula occludens-1 (ZO-1) (UniProt Q07157)
Assay: anti-ZO-1 co-IP, Cx43 blot
Conditions: reference: wild type; sites S373

In the case of “connexin43 (Cx43) (from UniProt P08050) S373A”, the “binding against the reference” value is reported as “stronger”.
